The text below walks through data of PMC8395731.

The assay has as its target 6xHis-tagged mTOR fragment ∆N-FAT-M (human) (UniProt P42345). The assay can be described thus: BLI; BLItz; His-tagged mTOR fragments (1 µM) immobilised on Ni-NTA biosensors, tagless RHEB as analyte (0.5 and 1 µM, or 0.05 and 0.1 µM for ∆ATP), no GTP; 10 mM HEPES pH 7.4, 100 mM NaCl, 0.02% Tween-20, 5 mg/mL BSA, 25 °C; global 1:1 fit.

Consider “6xHis-tag cleaved-RHEB (from UniProt Q15382 1-169) (natural protein)”, for which the dissociation constant (Kd) worked out at 1260 nM.
